Measured values as given in patent US20230181756A1 (Novartis, published 2023).
Values belong to the binder of their own block, whether it stands above or below them.

Columns and labels:
[1] = molecular target: T1, CXCR4 (UniProt P61073 1-352, limits assumed); assay: FACS on HEK293-CXCR4 cells
T1 construct: whole, on cells; also called HEK293-CXCR4

[2] = molecular target: T2, human CCR7 (human, UniProt P32248 25-378); assay: ELISA on CCR7-expressing VLPs, Kd at pH 5.8 over Kd at pH 7.4
T2 construct: The assay field tells which; also called hCCR7; NIH3T3.hCCR7
T2 sequence: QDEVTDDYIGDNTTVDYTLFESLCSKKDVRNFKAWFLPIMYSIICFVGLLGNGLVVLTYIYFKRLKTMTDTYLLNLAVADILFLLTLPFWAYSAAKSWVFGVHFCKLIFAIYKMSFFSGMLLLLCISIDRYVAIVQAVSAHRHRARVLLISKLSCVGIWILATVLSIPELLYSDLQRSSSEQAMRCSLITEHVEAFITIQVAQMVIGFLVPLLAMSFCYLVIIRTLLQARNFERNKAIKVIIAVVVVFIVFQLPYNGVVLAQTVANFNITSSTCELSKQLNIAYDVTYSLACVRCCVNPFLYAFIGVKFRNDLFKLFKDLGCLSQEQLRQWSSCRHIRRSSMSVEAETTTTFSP

[3] = molecular target: T2, human CCR7; assay: ELISA on CCR7-expressing VLPs, pH 5.8 buffer
[4] = molecular target: T2, human CCR7; assay: FACS titration, human CD4+ T cells from PBMC
[5] = molecular target: T3, CCR9 (UniProt P51686 1-369, limits assumed); assay: FACS on PF382 cells (CCR7-/CCR9+/CCR6+)
T3 construct: whole, on cells; also called PF382 cells (CCR7-/CCR9+/CCR6+)
T3 sequence (looked up): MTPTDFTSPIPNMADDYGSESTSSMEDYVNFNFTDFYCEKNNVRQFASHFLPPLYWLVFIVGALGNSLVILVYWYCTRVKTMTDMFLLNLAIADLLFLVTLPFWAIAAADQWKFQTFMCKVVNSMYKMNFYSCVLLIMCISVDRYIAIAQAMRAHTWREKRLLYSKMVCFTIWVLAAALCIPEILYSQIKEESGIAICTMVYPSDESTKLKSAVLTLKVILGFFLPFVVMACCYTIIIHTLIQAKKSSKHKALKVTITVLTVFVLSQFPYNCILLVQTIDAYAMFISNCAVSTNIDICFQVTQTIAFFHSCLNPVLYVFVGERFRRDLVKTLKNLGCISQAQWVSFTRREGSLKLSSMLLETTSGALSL

[6] = molecular target: T4, CCR6 (UniProt P51684 1-374, limits assumed); assay: FACS on PF382 cells (CCR7-/CCR9+/CCR6+)
T4 construct: whole, on cells; also called PF382 cells (CCR7-/CCR9+/CCR6+)
T4 sequence (looked up): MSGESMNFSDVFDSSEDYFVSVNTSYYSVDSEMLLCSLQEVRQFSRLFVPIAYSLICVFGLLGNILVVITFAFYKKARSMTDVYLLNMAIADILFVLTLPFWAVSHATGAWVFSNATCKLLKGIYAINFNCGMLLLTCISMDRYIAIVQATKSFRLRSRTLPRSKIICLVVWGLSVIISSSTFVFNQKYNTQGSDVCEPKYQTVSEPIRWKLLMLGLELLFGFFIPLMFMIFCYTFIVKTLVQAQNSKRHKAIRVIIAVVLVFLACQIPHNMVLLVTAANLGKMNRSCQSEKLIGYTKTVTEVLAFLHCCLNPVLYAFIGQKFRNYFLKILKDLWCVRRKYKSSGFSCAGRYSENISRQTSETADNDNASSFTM

[7] = molecular target: T5, CCR8 (UniProt P51685 1-355, limits assumed); assay: FACS on CHO-CCR8 cells
T5 construct: whole, on cells; also called CHO-CCR8

[8] = molecular target: T2, human CCR7; assay: ELISA on CCR7-expressing VLPs, pH 7.4 buffer
[9] = molecular target: T2, human CCR7; assay: FACS titration, DEL cancer cells (receptor density ~100,000)
[10] = molecular target: T2, human CCR7; assay: cell-based or functional assay
[11] = molecular target: T2, human CCR7; assay: FACS on DEL cells, antibody titrated to 100 nM together with a constant 1 uM CCL19 (competitor), panel 'ligand 1uM', anti-hFc.PE detection
[12] = molecular target: T2, human CCR7; assay: FACS titration, human CD4+ T cells (receptor density <2,000)
[13] = molecular target: T6, recombinant hCCR7 (Origene #TP306614) (human, UniProt P32248 25-378, limits assumed); assay: ELISA, recombinant CCR7 coated at 3.5 ug/ml, antibody titrated
T6 construct: Bought protein coated on ELISA plates; also called recombinant CCR7
T6 sequence (looked up): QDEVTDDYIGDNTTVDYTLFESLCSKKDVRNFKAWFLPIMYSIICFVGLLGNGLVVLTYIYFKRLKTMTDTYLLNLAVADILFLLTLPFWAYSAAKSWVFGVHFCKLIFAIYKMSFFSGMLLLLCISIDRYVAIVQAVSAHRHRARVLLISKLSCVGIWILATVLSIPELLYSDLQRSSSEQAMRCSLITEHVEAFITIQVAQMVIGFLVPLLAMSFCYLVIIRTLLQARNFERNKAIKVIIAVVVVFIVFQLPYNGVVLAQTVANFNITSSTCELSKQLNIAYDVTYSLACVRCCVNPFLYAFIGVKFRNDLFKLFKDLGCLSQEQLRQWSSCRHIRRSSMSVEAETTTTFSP

[14] = molecular target: T6, recombinant hCCR7 (Origene #TP306614); assay: ELISA on plate-coated recombinant hCCR7, antibody titrated, anti-hFc-HRP detection, OD 650 nm
[15] = molecular target: T2, human CCR7; assay: FACS titration, NIH3T3.hCCR7 cells (receptor density >1,000,000)
[16] = molecular target: T2, human CCR7; assay: FACS on DEL cells, antibody titrated to 100 nM, panel 'ligand 0uM' (no CCL19), anti-hFc.PE detection
[17] = molecular target: T7, rat CCR7 (rat, UniProt P47774 25-378 (mouse entry)); assay: FACS titration, NIH3T3 cells expressing rat CCR7
T7 construct: also called NIH3T3.rat CCR7
T7 chain: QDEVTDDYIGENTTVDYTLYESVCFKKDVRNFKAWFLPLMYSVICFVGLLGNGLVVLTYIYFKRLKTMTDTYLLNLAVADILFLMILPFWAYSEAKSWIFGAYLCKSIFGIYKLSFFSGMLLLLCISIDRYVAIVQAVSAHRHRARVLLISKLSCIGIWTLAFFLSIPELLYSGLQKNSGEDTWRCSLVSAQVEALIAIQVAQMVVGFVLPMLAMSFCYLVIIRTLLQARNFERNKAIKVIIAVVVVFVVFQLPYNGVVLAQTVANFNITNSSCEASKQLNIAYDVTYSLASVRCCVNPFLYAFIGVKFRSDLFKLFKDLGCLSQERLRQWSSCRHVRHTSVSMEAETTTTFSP

[18] = molecular target: T2, human CCR7; assay: FACS titration, Jeko-1 cancer cells (CCR7+)
[19] = molecular target: T2, human CCR7; assay: FACS titration, NIH3T3 cells expressing human CCR7
[20] = molecular target: T8, mouse CCR7 (mouse, UniProt P47774 25-378); assay: FACS titration, NIH3T3 cells expressing mouse CCR7
T8 construct: also called NIH3T3.mouse CCR7
T8 sequence: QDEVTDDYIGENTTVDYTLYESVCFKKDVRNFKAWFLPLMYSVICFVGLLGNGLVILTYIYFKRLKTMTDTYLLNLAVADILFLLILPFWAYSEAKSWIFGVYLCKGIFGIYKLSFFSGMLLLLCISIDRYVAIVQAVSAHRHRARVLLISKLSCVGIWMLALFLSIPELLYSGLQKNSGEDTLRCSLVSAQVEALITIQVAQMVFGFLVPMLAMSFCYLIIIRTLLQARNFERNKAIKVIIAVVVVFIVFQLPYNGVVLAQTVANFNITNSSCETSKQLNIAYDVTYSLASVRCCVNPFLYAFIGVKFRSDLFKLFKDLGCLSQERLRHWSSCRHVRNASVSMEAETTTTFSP

[21] = molecular target: T2, human CCR7; assay: cell-based or functional assay; remark: listed apart in the source
[22] = molecular target: T2, human CCR7; assay: FACS titration, human CD4+ T cells from PBMC; remark: listed apart in the source
[23] = molecular target: T8, mouse CCR7; assay: FACS titration, CD-1 mouse CD4+ T cells
[24] = molecular target: T9, cynomolgus monkey CCR7 (cynomolgus monkey, UniProt P32248 25-378 (human entry)); assay: FACS titration, NIH3T3 cells expressing cyno CCR7
T9 construct: also called Cyno CCR7; NIH3T3.cyno CCR7
T9 sequence: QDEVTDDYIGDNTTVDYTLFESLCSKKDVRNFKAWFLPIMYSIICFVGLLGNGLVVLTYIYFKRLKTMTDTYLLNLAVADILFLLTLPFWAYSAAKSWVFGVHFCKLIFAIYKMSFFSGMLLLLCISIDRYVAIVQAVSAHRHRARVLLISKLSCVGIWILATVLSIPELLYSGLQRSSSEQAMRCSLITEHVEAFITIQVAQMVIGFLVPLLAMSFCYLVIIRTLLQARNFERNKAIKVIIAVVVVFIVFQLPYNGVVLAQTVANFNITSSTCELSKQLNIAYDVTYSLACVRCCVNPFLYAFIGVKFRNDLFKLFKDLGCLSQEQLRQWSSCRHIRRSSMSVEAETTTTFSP

[25] = molecular target: T9, cynomolgus monkey CCR7; assay: FACS titration, cynomolgus CD4+ T cells
[26] = molecular target: T7, rat CCR7; assay: FACS titration, Wistar rat CD4+ T cells

T5 sequence (P51685 whole entry): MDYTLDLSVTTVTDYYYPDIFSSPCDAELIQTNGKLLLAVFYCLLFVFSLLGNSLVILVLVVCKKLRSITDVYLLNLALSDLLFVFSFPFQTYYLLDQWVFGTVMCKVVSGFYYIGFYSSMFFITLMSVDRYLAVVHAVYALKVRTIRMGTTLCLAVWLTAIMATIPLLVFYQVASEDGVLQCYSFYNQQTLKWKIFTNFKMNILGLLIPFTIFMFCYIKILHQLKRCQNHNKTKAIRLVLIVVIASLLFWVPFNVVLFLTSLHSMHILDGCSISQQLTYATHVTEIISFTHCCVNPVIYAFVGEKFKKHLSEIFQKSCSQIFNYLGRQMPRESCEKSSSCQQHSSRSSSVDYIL
T1 sequence (P61073 whole entry): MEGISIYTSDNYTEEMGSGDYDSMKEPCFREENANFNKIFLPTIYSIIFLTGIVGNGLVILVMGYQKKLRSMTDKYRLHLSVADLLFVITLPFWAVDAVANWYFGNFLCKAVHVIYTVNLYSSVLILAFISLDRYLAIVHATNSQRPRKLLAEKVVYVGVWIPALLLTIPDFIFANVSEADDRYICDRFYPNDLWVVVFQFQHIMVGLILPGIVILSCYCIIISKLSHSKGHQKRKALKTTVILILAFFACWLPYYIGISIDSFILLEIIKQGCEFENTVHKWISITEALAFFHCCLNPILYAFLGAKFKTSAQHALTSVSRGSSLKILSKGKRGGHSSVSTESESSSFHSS

binding result [1]: no binding (tested: 5 ug/ml)
fold change (pH 5.8/7.4) [2]: 13 fold
Kd [3]: 0.504 nM
EC50 [4]: 6.7 nM
binding result [5]: no binding (tested: 5 ug/ml)
binding result [6]: no binding (tested: 5 ug/ml)
binding result [7]: no binding (tested: 5 ug/ml)
Kd [8]: 0.0374 nM
B1: 684E12 humanized CysMab (Fc Wild Type) (antibody, V domains shown)
VH: EVQLVESGGGLVKPGGSLRLSCAASGFTFSNFAMSWVRQAPGKGLEWVSTISTGGTYTYYPDSVKGRFTISRDNAKNSLYLQMNSLRAEDTAVYYCARRGYSGVDKWGQGTTVTVSS
VL: DVVMTQSPLSLPVTLGQPASISCKSGQSLLDSTGKTYLNWFLQRPGQSPRRLIYLVSKLDSGVPDRFSGSGSGTDFTLKISRVEAEDVGVYYCWQGTHFPQTFGGGTKLEIK
notes: Human IgG1 kappa with CysMab cysteines; also called Humanized CysMab antibody 684E12

EC50 [9]: 0.47 nM
pHrodo (6 h MFI), internalization, CD4+ T cells (receptor numbers 2000) [10]: 402 MFI
pHrodo (6 h MFI), internalization, CMLT1 cells (receptor numbers 19583) [10]: 561 MFI
pHrodo (6 h MFI), internalization, DEL cells (receptor numbers 110685) [10]: 3780 MFI
pHrodo (6 h MFI), internalization, JVM3 cells (receptor numbers 8717) [10]: 146 MFI
pHrodo (6 h MFI), internalization, Jeko-1 cells (receptor numbers 28852) [10]: 1390 MFI
pHrodo (6 h MFI), internalization, KE97 cells (receptor numbers 152093) [10]: 4420 MFI
pHrodo (6 h MFI), internalization, L540 cells (receptor numbers 167549) [10]: 11800 MFI
pHrodo (6 h MFI), internalization, L1236 cells (receptor numbers 61602) [10]: 5820 MFI
pHrodo (6 h MFI), internalization, MJ cells (receptor numbers 111121) [10]: 3260 MFI
pHrodo (6 h MFI), internalization, MOTN1 cells (receptor numbers 84200) [10]: 2540 MFI
pHrodo (6 h MFI), internalization, Mec2 cells (receptor numbers 50840) [10]: 3000 MFI
EC50 (read off the curve) [11]: ~2 nM
EC50 [12]: ~2 nM
Kd [13]: 0.006 nM
EC50 (read off the curve) [14]: ~0.07 nM
EC50 [15]: 0.64 nM
EC50 (read off the curve) [16]: ~2 nM
B2: Humanized 674J13.CysMab.DAPA (antibody, human IgG1, kappa, V domains shown)
VH: DVQLQESGPGLVKPSQTLSLTCTVSGYSITSGYSWHWIRQHPGKGLEWMAHIHSSGSTNYNPSLKSRITISRDTSKNQFSLKLSSVTAADTAVYYCARGGVQAFAYWGQGTLVTVSS
VL: EIVLTQSPATLSASPGERVTMSCSASSSVIYMHWYQQKPGQAPRRWIYDTSKLASGVPARFSGSGSGTDYTLTISSMEPEDAAVYYCQQWSSNPLTFGQGTKLEIKR
notes: Human IgG1 kappa with D265A/P329A and CysMab cysteines; also called 674J13 (Humanized, CysMab DAPA)

binding result [17]: no binding
EC50 [18]: 12 nM
EC50 [19]: > 30 nM
binding result [20]: no binding
ADCC activity; IC50 (nM); reporter assay, JVM2 targets and Jurkat-V158 effectors [21]: 2.63 nM
B3: 684E12 non-humanized CysMab (antibody, human IgG1, kappa, V domains shown)
VH: EVHLVESGGGLVKPGGSLKLSCAASGFTFSNFAMSWVRQTPEKRLEWVATISTGGTYTYYPDSVKGRFTISRDNAKKTLYLQMSSLRSEDTAMYYCTRRGYDGVDKWGQGTTLTVSS
VL: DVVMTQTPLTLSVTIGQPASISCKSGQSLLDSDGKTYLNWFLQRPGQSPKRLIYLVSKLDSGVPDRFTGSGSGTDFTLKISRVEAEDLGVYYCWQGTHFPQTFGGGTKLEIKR
notes: Chimeric human IgG1 kappa with CysMab cysteines and wild type Fc; also called Parental 684E12 hIgG1 CysMab; Non-humanized CysMab antibody 684E12

EC50 [17]: 2.4 nM
EC50 [22]: 22 to 30 nM
EC50 [23]: 48 to 51 nM
EC50 [24]: 1.3 nM
EC50 [25]: 5.8 to 12 nM
EC50 [26]: 18 to 31 nM
EC50 [18]: 1.5 nM
EC50 [19]: 1.3 nM
EC50 [20]: 2.5 nM
ADCC activity; IC50 (nM); reporter assay, JVM2 targets and Jurkat-V158 effectors [21]: 0.077 nM
B4: 121G12 non-humanized CysMab (antibody, human IgG1, kappa, V domains shown)
VH: EVQLVESGGGLVKPGGSLKLSCAASGFTFSTYAMSWVRQTPEKRLEWVATISDGGSYSYYPDNVKGRFTISRDNAKNNLYLQMSHLKSEDTAMYYCARRGSRYEEYYVMDYWGQGTSVTVSS
VL: DIVLTQSPATLSVTPGDSVSLSCRASQSISNNLHWYQQKSHESPKLLIKYASQSISGIPSRFSGSGSGTDFTLSINSVETEDFGMYFCQQSNSWLTFGAGTKLGLKR
notes: Chimeric: murine variable regions on human IgG1 kappa with CysMab cysteines (E152C, S375C) and wild type Fc; also called Parental 121G12 hIgG1 CysMab; Non-humanized CysMab antibody 121G12
